This passage reports Kd results from PMC8809517, “Cofactor-independent RNA editing by a synthetic S-type PPR protein”.

Common to all, as to assay: high-throughput RNA pulldown from lysate on Ni-NTA beads; HRP: 50 mM Tris pH 8, 150 mM NaCl, 1 mM beta-mercaptoethanol, 50 ug/ml BSA, 3 ug/ml yeast RNA, 0.5% heparin; ITC and FP: Tris pH 8, 200 mM KCl, 5% glycerol; MST: 50 mM Tris pH 8, 200 mM NaCl, 1 mM DTT, BSA, heparin, 0.05% Tween 20
What all share (details): tags: N-terminal His-eGFP

Series [1] addresses T1, GFP-9S library array, motif 4 ND N98L;D124P (synthetic construct, N98L;D124P).
T1 chain: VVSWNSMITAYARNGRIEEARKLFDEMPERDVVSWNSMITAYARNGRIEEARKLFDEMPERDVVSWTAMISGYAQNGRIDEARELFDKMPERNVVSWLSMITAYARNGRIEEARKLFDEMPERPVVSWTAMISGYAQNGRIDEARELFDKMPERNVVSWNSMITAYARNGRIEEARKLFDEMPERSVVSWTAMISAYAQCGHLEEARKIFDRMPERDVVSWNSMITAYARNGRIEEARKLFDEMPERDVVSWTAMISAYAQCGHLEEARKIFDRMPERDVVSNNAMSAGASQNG

Series [2] concerns the target T2, GFP-9S library array, motif 4 ND N98L;D124S (synthetic construct, N98L;D124S).
T2 chain: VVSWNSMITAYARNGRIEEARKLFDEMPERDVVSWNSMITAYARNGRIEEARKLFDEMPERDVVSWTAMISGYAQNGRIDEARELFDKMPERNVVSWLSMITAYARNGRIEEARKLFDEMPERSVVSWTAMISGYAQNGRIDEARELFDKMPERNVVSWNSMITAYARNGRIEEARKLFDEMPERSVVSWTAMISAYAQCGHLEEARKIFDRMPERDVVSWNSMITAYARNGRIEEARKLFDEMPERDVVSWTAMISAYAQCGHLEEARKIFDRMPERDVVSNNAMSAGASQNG

For series [3], the target named is T3, GFP-9S library array, motif 4 ND N98T;D124T (synthetic construct, N98T;D124T).
T3 chain: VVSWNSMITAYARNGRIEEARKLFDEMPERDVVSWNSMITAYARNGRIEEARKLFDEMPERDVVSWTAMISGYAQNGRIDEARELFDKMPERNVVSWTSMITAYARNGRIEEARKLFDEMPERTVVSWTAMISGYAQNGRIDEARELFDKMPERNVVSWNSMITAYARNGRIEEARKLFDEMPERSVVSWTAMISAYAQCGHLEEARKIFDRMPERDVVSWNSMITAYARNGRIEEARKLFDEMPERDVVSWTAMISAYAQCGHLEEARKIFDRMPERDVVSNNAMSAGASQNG

The target of series [4] is T4, GFP-9S library array, motif 4 ND N98T;D124R (synthetic construct, N98T;D124R).
T4 chain: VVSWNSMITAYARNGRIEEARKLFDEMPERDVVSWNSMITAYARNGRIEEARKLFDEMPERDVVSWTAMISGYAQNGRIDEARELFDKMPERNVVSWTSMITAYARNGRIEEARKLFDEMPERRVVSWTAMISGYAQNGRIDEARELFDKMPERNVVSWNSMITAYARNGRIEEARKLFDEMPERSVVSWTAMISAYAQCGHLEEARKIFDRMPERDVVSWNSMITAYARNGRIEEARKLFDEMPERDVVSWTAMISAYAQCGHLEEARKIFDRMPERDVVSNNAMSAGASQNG

Series [5] addresses T5, GFP-9S library array, motif 4 ND N98E;D124E (synthetic construct, N98E;D124E).
T5 chain: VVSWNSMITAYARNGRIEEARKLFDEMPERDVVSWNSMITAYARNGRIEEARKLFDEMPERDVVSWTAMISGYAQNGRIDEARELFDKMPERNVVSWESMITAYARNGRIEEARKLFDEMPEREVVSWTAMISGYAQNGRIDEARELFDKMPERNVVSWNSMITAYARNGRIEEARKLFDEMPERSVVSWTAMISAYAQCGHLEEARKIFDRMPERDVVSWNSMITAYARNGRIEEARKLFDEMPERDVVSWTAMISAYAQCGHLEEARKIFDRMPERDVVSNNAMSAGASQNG

The term Kd denotes the constant that tells how readily two partners part at equilibrium. Read a low Kd as tighter binding. In the case of AUUAUACGUGA (ssRNA) [IR-rpoA-U], the Kd in series [1] (label: 5' IRDye 800CW) is 145 nM; in series [2] (label: 5' IRDye 800CW) it was 37.2 nM; in series [3] (label: 5' IRDye 800CW), 63.1 nM; in series [4] (label: 5' IRDye 800CW) it was 133 nM; in series [5] (label: 5' IRDye 800CW) it was 675 nM.

With AUUACACGUGA (ssRNA) [Cy5-rpoA], the Kd in series [1] (label: 5' Cy5) is 97.7 nM; in series [2] (label: 5' Cy5) it was 139 nM; in series [3] (label: 5' Cy5), 83.1 nM; in series [4] (label: 5' Cy5), 132 nM; in series [5] (label: 5' Cy5), 248 nM.

Take AUUAGACGUGA (ssRNA) [Cy5-rpoA-G]: the Kd in series [1] (label: 5' Cy5) is 114 nM; in series [2] (label: 5' Cy5), 111 nM; in series [3] (label: 5' Cy5), 81.4 nM; in series [4] (label: 5' Cy5), 120 nM; in series [5] (label: 5' Cy5), 169 nM.

Regarding AUUAAACGUGA (ssRNA) [IR-rpoA-A], the equilibrium dissociation constant (Kd) stood at 213 nM in series [1] (label: 5' IRDye 800CW); 120 nM in series [2] (label: 5' IRDye 800CW); 18.3 nM in series [3] (label: 5' IRDye 800CW); 80.8 nM in series [4] (label: 5' IRDye 800CW); 387 nM in series [5] (label: 5' IRDye 800CW).
